Source: paper PMC3081611

Biological target: CurA ACPI-ACPII-ACPIII tridomain
Assay: negative stain electron microscopy

percent existing as dimers: 25%
stoichiometry N: 2
Substance: CurA ACPI-ACPII-ACPIII tridomain (domain or fragment)
